Reference: patent US20140309404A1

Columns and labels:
BMP-10 = experiment: cell-based or functional assay
BMP-2 = experiment: cell-based or functional assay
BMP-4 = experiment: cell-based or functional assay
BMP-9 = experiment: cell-based or functional assay
human BMP-5 (human) = human BMP-5 (human) (UniProt P22003); experiment: cell-based or functional assay
human BMP-6 (human) [1] = molecular target: human BMP-6 (human) (UniProt P22004); experiment: cell-based or functional assay
human BMP-7 (human) [2] = molecular target: human BMP-7 (human) (UniProt P18075); experiment: cell-based or functional assay
Chain of human BMP-7 (human) (P18075 293-431 limits assumed): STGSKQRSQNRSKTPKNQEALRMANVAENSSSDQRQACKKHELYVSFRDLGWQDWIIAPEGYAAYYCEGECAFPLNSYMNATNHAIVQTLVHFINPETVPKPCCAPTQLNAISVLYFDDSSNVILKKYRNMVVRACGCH

human BMP-6 (human) [3] = molecular target: human BMP-6 (human) (UniProt P22004); experiment: SPR (BIAcore), BMP-6 immobilised on CM4 chip, antibody injected, 37 C
human BMP-7 (human) [4] = molecular target: human BMP-7 (human) (UniProt P18075); experiment: SPR (BIAcore), BMP-7 immobilised on CM4 chip, antibody injected, 37 C

Chain of human BMP-6 (human) (P22004 382-513 limits assumed): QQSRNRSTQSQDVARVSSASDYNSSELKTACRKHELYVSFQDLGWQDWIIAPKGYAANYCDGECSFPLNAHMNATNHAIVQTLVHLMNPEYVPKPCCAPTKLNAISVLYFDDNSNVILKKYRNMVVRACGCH
Chain of human BMP-5 (human) (P22003 317-454 limits assumed): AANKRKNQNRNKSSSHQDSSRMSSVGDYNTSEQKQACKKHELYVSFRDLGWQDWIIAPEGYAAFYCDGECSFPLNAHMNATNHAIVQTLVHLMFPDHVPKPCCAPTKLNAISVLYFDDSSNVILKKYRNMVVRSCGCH

Row | Mean % Inh at 1000 nM, BMP-10 induced Hep Luc Assay (BMP-10) [%] | Mean % Inh at 1000 nM, BMP-2 induced Hep Luc Assay (BMP-2) [%] | Mean % Inh at 1000 nM, BMP-4 induced Hep Luc Assay (BMP-4) [%] | Mean % Inh at 1000 nM, BMP-9 induced Hep Luc Assay (BMP-9) [%] | Mean % Inh at 1000 nM, BMP-5 induced Hep Luc Assay (human BMP-5 (human)) [%] | Geometric Mean IC50 (nM), BMP-6 induced Hep Luc Assay (hepcidin promoter luciferase, HepProm Luc cells) (human BMP-6 (human) [1]) [nM] | Mean % Inh at 1000 nM, BMP-7 induced Hep Luc Assay (human BMP-7 (human) [2]) [%] | Kd (human BMP-6 (human) [3]) [nM] | koff (human BMP-6 (human) [3]) [s⁻¹] | kon (human BMP-6 (human) [3]) [M⁻¹ s⁻¹] | Kd (human BMP-7 (human) [4]) [nM] | koff (human BMP-7 (human) [4]) [s⁻¹] | kon (human BMP-7 (human) [4]) [M⁻¹ s⁻¹] | Substance
1 | -87.2 | -50.6 | -65.4 | -76.1 | -43.5 | 22.1 | 54.2 | 1 | 0.000187 | 187000 | 23.2 | 0.000793 | 34200 | MAB507 (antibody)
2 | 5.4 | 7.8 | 4.2 | 2.8 | 2.5 |  | -1.7 |  |  |  |  |  |  | human IgGPAA4 control (antibody)
